system: K4 kissing-loop RNA reporter; test: apparent KD of K4 kissing-loop reporter; higher = weaker reporter binding; details: Eterna round: R107; input ligand: none
Experimental: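 RNA-MaP round R107: designed RNA switches with theophylline, tryptophan, arginine or FMN aptamers are transcribed on-chip within common flanks. They are titrated with a labelled K4 kissing-loop RNA reporter in RNA-MaP buffer (100 mM Tris pH 7.5, 80 mM KCl, 4 mM MgCl2), without ligand or with the indicated ligand. Median apparent KD per design.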
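Also: bound reporter read as fluorescence of individual clusters on recovered sequencing chips by microscopy, with normalized cluster intensities fitted with a binding model.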

| Sequence | apparent KD of K4 kissing-loop reporter [nM] |
| --- | --- |
| AGCGGCCAGUCGGCCGCCACUCCAGGCAGUGAUGUUGCGAAGUUUCUACUAGAGUGAUGUUCUAAGAGGACCGGGACUGACGUAA [Exclusion Tryptophan B Gf 9] | 253 |
| AUGCUGUCGGCGUUAAAGUAGUAAUGUGAUACCAGAAAUGCUGUGUUCCCUUGGCAGCACAUUCUUACAGACAGUGAUGUUGUCU [theeternabot_exclusion_KL_Theo_A_8] | 391 |
| GCUAGCAUGGCAGGAUAUAGCAAUAGGAGUGAUGUUCCUUGGUAGGUGAGUGAUGUUCACUACCAACUAGAAGGGCCAUGCUAGC | 126 |
| UGACUGGACUGAAGGAGCGCGCGAGACAAAGUCUCGAACUCCUAGUGAUGUUAGGAAAUAACGCAGGUAGGUCGCAGUCUAGUCU [ArgBS 10 #SwitchBubble #StaticStem #DoubleMagnet] | 243 |
| GUGAGGAUCCGAAGGAGCGUCCGCAAUCCAGUGAUGUUGGGUGUUGGUUAUAUUUAACGAGGACAGGUAGGUCGCGGAUUUUCAA [Same State Arginie B GF 22] | 172 |
| CGUAGCAGAUGAAGGAGCGGCUACCUGUAUCAGGCAACUGCCUGAGUGAUGUUCAGGUAUAGCCAGGUAGGUCGCAUCUGCUACG [Arg B Ex t9b] | 214 |
| AGGUGGGACGUAGGAUAUCCCUAAUGAUUUACUUCCUGGUUGCUACGCUUCCAGUGAUGUUGGAAGGGAGAAGGACGGGCGAGUU [Riatbive] | 213 |
| AGACUUCACCGAAGGAGCGACGUGGCCUAGUGAUGUUAGGCACGAGAGAAAUCUCGUGUACGUCAGGUAGGUCGCGGUGAAGUCA [Omei KL Arginine B SS C v7] | 939 |
| UAAAAUAAAUAAUAGAGAGCGUUACUCGAAGGAGCGACGAAUUCGUCAGGUAGGUCGCGAGUGAUGUUCGCAAAUACGCUCUCAU [AK2 Exc Arginine A] | 850 |
| AAUGUACAGGGAAGGAGCGUCGUCCAGUGAUGUUGGAGUUAAAUACCAGUGAUGUUGGUUAGGCAGGUAGGUCGCCCUAAAGUAG [#09 K4 Arginine B Exclusion] | 80.1 |
| UUAAUAAUUCAAGGAUAUGUUUUUUUUUUCGAGUGAUGUUCGGAAUUAAUAAAUUUAAAAGAUUAUACAGAAGGUGAUAAAUAGU [Cynwulf-mod#1] | 88.3 |
| CCAUCGCUAUUCGAUACCAGCUACUUAGUGAUGUUAAGUUAAAAUAAAUUGUAGAUUAAAAGCCCUUGGCAGCGAAUAGUGAUGG [Theophylline B K4 19] | 150 |
| UAAAUAAUAAAACGAGUGAUGUUCGACGAUACCAGCCUCGAUAGAGGCCCUUGGCAGCGUAAAUGAUCACAAAGCCAAGGUAUAA [#01 K4 Theophylline A Exclusion] | 159 |
| GGUAUCCAGUACCAUUGCGUUAAAACAGAAGGAGCGAGAAUAGACUCAGGUAGGUCGCUGUUUAUAGUCGAGUGAUGUUCGAAUC [Same State Arginine A GF 14] | 265 |
| AAAAUAAAUCAGUGAUGUUGGUAUCUGGAUACCAGCGAUAAUAAUCGCCCUUGGCAGCCAUGGACGUACAAAAUAAGUACGUCCU [MatMod 18 - Jieux - Same State - Theophylline A] | 226 |
| AAAAUUAAGGCCGAAUAAACUUAUUUCAUACGAGGACCGGUACGGCCGCCACUCGAGUCAAGUGAUGUUUGACUAUCUAUUAUUA [JR_ExcTryptoA_Sub009] | 68.7 |
| UGUACCGAGUCAGGAUAUGGCGUCGAAAGACGAAUCCUAGUGAUGUUAGUGAUCUGCGAAAGCAGUCCAGAAGGGACUUGGUACU [FmnBS 26 U50] | 334 |
| GCAGUGAUGUUGCGGAUGUACAGUGGCGUGCGAGGACCGGUACGGCCGCCACUCGUACAGAGCCAGCUAAUACAUCGAUAGGUGA [whbob_SS_Tryp_A_m6] | 239 |
| CGUUUAUAGCAGGAUACCAGUACGGAUAAGGUACGUUAAUAGUAGAGUGAUGUUCUAAAGUACCCUUGGCAGCUUAGAGUGAGUG [#20 K4 Theophylline B Exclusion] | 142 |
| CAUAUAUAUAGAGGAUAUCGAGUAGAGUGAUGUUCUGCCUGGGUUGGCUCGCAAGGGCCUUCCCAGCGAGAAGGCUAUAUAUAUG [harrys-mod#1ED5.33] | 502 |
| CAUACCCAGUGAUGUUGGGUCGGUACCGAUACCAGUCGUACAGCCGACCCUUGGCAGCGGUAGCAUUGCCCGGCGUCGGCUUGUG [theeternabot_exclusion_KL_Theo_A_17] | 625 |

same assay, conditions: Eterna round: R107; input ligand: theophylline 20 uM

| Sequence | apparent KD of K4 kissing-loop reporter [nM] |
| --- | --- |
| UGUCAUUGGUCUGAUACCAGAAGAAUCUGGAGUGAUGUUCCAAGUCGAUCAAAAGAUCGCUUCCCUUGGCAGCAGACCGAUGACU [TheoBS 24 #SwitchBubble 13 #StaticStem] | 188 |
| UUAAGGGUCCGAGGAUAUCUCCCAGUGAUGUUGGGCGAUACGGCCCUUAAGACUAAUGGUUGAAGGAGAGAAGGCGGCUCCCGAU [Edmaisle] | 136 |
| GCGGCCCAGCCGGAUACCAGUGACCCGCUGGGAACCGCGGGCCCAGAGUGAUGUUCGGGACACCCUUGGCAGCCGCCUGGGACGC [#2 Same State - Theophylline B Attempt #17 (HarryS)] | 334 |
| CUGAGCCUGACGAAAGUCAGGCUCUGCGAGCGAGGACCGGUACGGCCGCCACUCGGUGCAGUGAUGUUGCAUGGCCGCAAGGCCG [#2 Exclusion - Tryptophan A Attempt #18 (HarryS)] | 256 |
| AGCCGAAAGGCGAGUGCUGUCACUCCGGAAGGAGCGCUCGAAAGAGCAGGUAGGUCGCCGGAGUGAUGUUCCGGUGCAGCACUCA [Omei KL Arginine A Exc B v5] | 1210 |
| AAGUGAUGUUGUAGUGAUGUUGUGAUGUUGCAGGAUAUAUAGUGAUGUAGAAGGGUAUGUACAGAUUUUUUUUUUGAGUGAUGUU [ffdcmullin] | 59 |
| GGAUCCACCAGUGAUGUUGGAGAAAACUCUAAGGAUAUGACGAAAGUCAGAAGGUGGUAGACUGGUCAAAGUCCGGUCGGAUCCA [FmnA10 U30+U66] | 756 |
| GUGCGGCUAGUGAUGUUGGUUGCGUGGGAAGGAGCGCAGAAACAUGCAGGUAGGUCGCCCACACCUCUGAAAGGAGGUUAAUUCA [Diusdige] | 171 |
| UGGAGUUGACGAAAAGUCAACUCCCGAGAAGGAGCGGACGAAAGUCCAGGUAGGUCGCUCGCUACCAGUGAUGUUGGUACGUAAA | 139 |
| AACAAGGGAUGUCAGUGAUGUUGUACGUCGCGAGGACCGGUACGGCCGCCACUCGUAAUACACAGAUGAGGGUUCUUUCUCUGAU [theeternabot_sameState_KL_Trp_A_49] | 265 |
| UAUAUAUGAUGUGAUACCAGUGAAAAGCCAGUGAUGUUGGAGGAGCUGGUAUAUAAAUAAGACCCUUGGCAGCACAAUCACGUAU [#01 K4 Theophylline B Exclusion] | 221 |
| UUUUUGGUUUAGAGUGAUGUUCCUUGUAAUCGAGGACCGGUACGGCCGCCACUCGAUUAGAAAAGAAAAGAAAAGAGUGAUGUUU [BDazzled - #2 SS Tryptophan A] | 248 |
| AUUAUAAAGUCGGCCGCCACUGAGAGUAGUGAUGUUACUCUAUUCCUUUAGAUAUUAUAUUUUAUCAGGACCGGGACAUCAGAUU [JR_ExcTryptoB_Sub019] | 290 |
| GCUAUGGUAGGAAGGAGCGCUUGCUCGGUCAUAUGAGUGAUGUUCGAGACUGAGCAUUUAUAGCAGGUAGGUCGCCUACUAUAGC [Arginine B K4 9] | 242 |
| CGUUUAUAGCAGGAUACCAGUACCCAUAAAGUACGUUAAUAGUAGAGUGAUGUUCUAAAGUACCCUUGGCAGCUUCCCGUGAGUG [ExTheophylB.T] | 134 |
| GUUGUAUACUGAAGGAGCGAGUAGUGGAAACAUAAACUCAUUGCGAGUGAUGUUCGCGGUACUCAGGUAGGUCGCGGUAAUCGUA [Exclusion Arginine B Gf 11] | 485 |

| Sequence | apparent KD of K4 kissing-loop reporter [nM] |
| --- | --- |
| UGUCAUUGGUCGGCCGCCACUUCAAGGUCAAAGACCAGAGUGAUGUUCUUGCACAAAGUGCUUAGAAGGACCGGGACCGAUGACU [TrypBS 13 #SwitchBubble #K4Middle] | 413 |
| GUUACGCAUGGAAGGAGCGCUCUCAGGCUUAAUAACACAGUGAUGUUGUGAAUUUGCCUAAAGCAGGUAGGUCGCCAUGUGUAAC [Ex Arginine B K4 9] | 423 |
| AGAGUCGGCUGUGAUACCAGUCGUAUUACAACAUGUCGCAGUGAUGUUGCGAGAUAGGAUGACCCUUGGCAGCACUCAGUACGAU [Same State Theophylline B GF 8] | 503 |
| AAAACUAUCAGAAGGAGCGUGGAAUAUACAUCUAUAUUUAAUACGAGUGAUGUUCGUAAUUCACAGGUAGGUCGCUGAUCAAUAA [whbob_Ex_Arginine_B_2th153] | 359 |
| AAGUGUGUGGCGGCCGCCACUAGAAUCCAGUGAUGUUGGAGUAAUCAAAUAAAUAAUAAUAAACAUAGGACCGGGCCAUAUAGAA [Same State - Tryptophan B (Freestyle 2)] | 134 |
| AGCGGCCAGUCGGCCGCCACUCCAGGCAGUGAUGUUGCGAAGUUUCUACUAGAGUGAUGUUCUAAGAGGACCGGGACUGACGUAA [Exclusion Tryptophan B Gf 9] | 291 |
| AUGCUGUCGGCGUUAAAGUAGUAAUGUGAUACCAGAAAUGCUGUGUUCCCUUGGCAGCACAUUCUUACAGACAGUGAUGUUGUCU [theeternabot_exclusion_KL_Theo_A_8] | 390 |
| GCUAGCAUGGCAGGAUAUAGCAAUAGGAGUGAUGUUCCUUGGUAGGUGAGUGAUGUUCACUACCAACUAGAAGGGCCAUGCUAGC | 108 |
| UGACUGGACUGAAGGAGCGCGCGAGACAAAGUCUCGAACUCCUAGUGAUGUUAGGAAAUAACGCAGGUAGGUCGCAGUCUAGUCU [ArgBS 10 #SwitchBubble #StaticStem #DoubleMagnet] | 209 |
| GUGAGGAUCCGAAGGAGCGUCCGCAAUCCAGUGAUGUUGGGUGUUGGUUAUAUUUAACGAGGACAGGUAGGUCGCGGAUUUUCAA [Same State Arginie B GF 22] | 193 |
| CGUAGCAGAUGAAGGAGCGGCUACCUGUAUCAGGCAACUGCCUGAGUGAUGUUCAGGUAUAGCCAGGUAGGUCGCAUCUGCUACG [Arg B Ex t9b] | 211 |
| AGGUGGGACGUAGGAUAUCCCUAAUGAUUUACUUCCUGGUUGCUACGCUUCCAGUGAUGUUGGAAGGGAGAAGGACGGGCGAGUU [Riatbive] | 217 |
| AGACUUCACCGAAGGAGCGACGUGGCCUAGUGAUGUUAGGCACGAGAGAAAUCUCGUGUACGUCAGGUAGGUCGCGGUGAAGUCA [Omei KL Arginine B SS C v7] | 862 |
| UAAAAUAAAUAAUAGAGAGCGUUACUCGAAGGAGCGACGAAUUCGUCAGGUAGGUCGCGAGUGAUGUUCGCAAAUACGCUCUCAU [AK2 Exc Arginine A] | 696 |
| AAUGUACAGGGAAGGAGCGUCGUCCAGUGAUGUUGGAGUUAAAUACCAGUGAUGUUGGUUAGGCAGGUAGGUCGCCCUAAAGUAG [#09 K4 Arginine B Exclusion] | 86.5 |
